Reference: doi:10.1101/2022.05.16.492059 (bioRxiv, 2022)

Target: the molecule itself
Test: SEC-MALS

B1: PGL-3 (1-452) (domain or fragment, C. elegans, UniProt G5EBV6 1-452, looked up)
chain: MEANKRQIVEVDGIKSYFFPHLAHYLASNDELLVNNIAQANKLAAFVLGATDKRPSNEEIAEMILPNDSSAYVLAAGMDVCLILGDDFRPKFDSGAEKLSQLGQAHDLAPIIDDEKKISMLARKTKLKKSNDAKILQVLLKVLGAEEAEEKFVELSELSSALDLDFDVYVLAKLLGFASEELQEEIEIIRDNVTDAFEACKPLLKKLMIEGPKIDSVDPFTQLLLTPQEESIEKAVSHIVARFEEASAVEDDESLVLKSQLGYQLIFLVVRSLADGKRDASRTIQSLMPSSVRAEVFPGLQRSVFKSAVFLASHIIQVFLGSMKSFEDWAFVGLAEDLESTWRRRAIAELLKKFRISVLEQCFSQPIPLLPQSELNNETVIENVNNALQFALWITEFYGSESEKKSLNQLQFLSPKSKNLLVDSFKKFAQGLDSKDHVNRIIESLEKSSSSE
- stoichiometry N: 2
